± gives the uncertainty stated by the source.
B1: Double-stranded RNA-binding protein Staufen homolog 1, residues 183 to 249; numbered along this chain, O95793 (parent)
chain: KSEISQVFEIALKRNLPVNFEVARESGPPHMKNFVTKVSVGEFVGEGEGKSKKISKKNAAIAVLEEL

Variants of: B1
Assay: abundance fitness (aPCA) (normalised: wild type 0, dead -1); higher = more abundant; growth selection in yeast, the domain comes from the species named
Details: Homo sapiens

Row | Variant | abundance fitness
1 | L12K | -0.029 ± 0.22
2 | V40Q | -0.542 ± 0.056
3 | V40G | -0.681 ± 0.062
4 | V40L | -0.199 ± 0.041
5 | V40Y | -0.809 ± 0.12
6 | V44I | -0.04 ± 0.075
7 | V44R | -0.051 ± 0.035
8 | V44G | -0.414 ± 0.04
9 | V44M | -0.045 ± 0.068
10 | V7S | -0.656 ± 0.052
11 | V7L | -0.142 ± 0.038
12 | V7A | -0.781 ± 0.055
13 | V7M | -0.295 ± 0.056
14 | V7D | -0.676 ± 0.075
15 | V7T | -0.717 ± 0.075
16 | V7I | -0.24 ± 0.043
17 | V7P | -0.68 ± 0.066
18 | L67S | -0.603 ± 0.067
19 | L67K | -0.53 ± 0.08
20 | L67Q | -0.423 ± 0.076
21 | L67I | -0.114 ± 0.14
22 | L67E | -0.743 ± 0.11
23 | E9S | -0.2 ± 0.04
24 | E9C | -0.33 ± 0.075

Row | Variant | abundance fitness
25 | E9V | -0.517 ± 0.038
26 | E9W | -0.506 ± 0.064
27 | E9G | -0.433 ± 0.039
28 | G41H | -0.737 ± 0.17
29 | G41L | -0.91 ± 0.07
30 | G41E | -0.611 ± 0.074
31 | G41R | -0.941 ± 0.06
32 | G41Y | -1.13 ± 0.39
33 | G41F | -1.18 ± 0.21
34 | G41N | -0.853 ± 0.2
35 | G41I | -1.41 ± 0.36
36 | E66T | -0.042 ± 0.049
37 | E66I | 0.097 ± 0.067
38 | E66S | -0.005 ± 0.05
39 | E66G | -0.118 ± 0.043
40 | E66M | 0.111 ± 0.067
41 | E66C | -0.037 ± 0.13
42 | E66F | 0.103 ± 0.11
43 | A62Y | -0.788 ± 0.14
44 | A62R | -0.121 ± 0.047
45 | A62V | -0.403 ± 0.043
46 | A62P | -0.56 ± 0.075
47 | K50L | -0.132 ± 0.042
48 | K50R | -0.006 ± 0.034

Row | Variant | abundance fitness
49 | K50C | -0.036 ± 0.07
50 | K50E | -0.004 ± 0.054
51 | K50F | -0.406 ± 0.081
52 | K50D | -0.17 ± 0.08
53 | K50S | -0.007 ± 0.044
54 | K50P | 0.078 ± 0.066
55 | S51W | -0.578 ± 0.19
56 | S51L | -0.797 ± 0.068
57 | S51G | -0.791 ± 0.09
58 | E21K | -0.049 ± 0.066
59 | E21V | -0.023 ± 0.043
60 | E21D | -0.105 ± 0.098
61 | E21N | -0.226 ± 0.086
62 | E21H | -0.072 ± 0.068
63 | A60R | -0.882 ± 0.05
64 | Q6F | -0.653 ± 0.038
65 | Q6D | -0.435 ± 0.033
66 | K57T | 0.17 ± 0.28
67 | K57V | -0.218 ± 0.24
68 | P28T | -0.177 ± 0.07
69 | P28G | -0.111 ± 0.038
70 | P28Y | -0.342 ± 0.073
71 | P28W | -0.316 ± 0.046
72 | P28N | -0.152 ± 0.091

Row | Variant | abundance fitness
73 | P28H | -0.123 ± 0.091
74 | F43M | -0.255 ± 0.077
75 | F43S | -0.272 ± 0.05
76 | F43I | -0.197 ± 0.1
77 | F43K | -0.317 ± 0.063
78 | R14V | -0.6 ± 0.061
79 | R14Y | -0.048 ± 0.15
80 | R14D | -0.487 ± 0.092
81 | R14Q | -0.188 ± 0.064
82 | R14M | 0.014 ± 0.066
83 | R14W | -0.25 ± 0.07
84 | R14S | -0.31 ± 0.056
85 | P29W | -0.274 ± 0.042
86 | P29C | -0.198 ± 0.056
87 | P29G | 0.052 ± 0.043
88 | P29V | -0.205 ± 0.045
89 | P29H | -0.105 ± 0.1
90 | R24A | -0.132 ± 0.047
91 | R24E | -0.031 ± 0.044
92 | R24S | -0.065 ± 0.039
93 | R24W | -0.256 ± 0.038
94 | S26T | 0.085 ± 0.21
95 | N19C | 0.027 ± 0.11
96 | N19A | -0.047 ± 0.051

Row | Variant | abundance fitness
97 | N19G | -0.323 ± 0.053
98 | N19M | -0.048 ± 0.058
99 | K32E | -0.077 ± 0.07
100 | K32F | -0.516 ± 0.093
101 | K32D | -0.332 ± 0.11
102 | K32R | -0.052 ± 0.045
103 | E65I | -0.573 ± 0.14
104 | E65T | -0.082 ± 0.044
105 | K13L | -0.213 ± 0.042
106 | K13W | -0.59 ± 0.074
107 | K13S | -0.194 ± 0.049
108 | N15R | -0.155 ± 0.044
109 | N15D | -0.156 ± 0.076
110 | N15I | -0.629 ± 0.17
111 | N15M | -0.296 ± 0.093
112 | N15H | 0.006 ± 0.12
113 | N15S | -0.146 ± 0.061
114 | N15C | -0.325 ± 0.11
115 | N15A | -0.198 ± 0.056
116 | K37H | -0.292 ± 0.14
117 | K37T | -0.364 ± 0.099
118 | K37Q | -0.25 ± 0.15
119 | K37E | -0.553 ± 0.099
120 | E46I | 0.052 ± 0.14

Row | Variant | abundance fitness
121 | E46W | 0.039 ± 0.069
122 | E46H | 0.011 ± 0.088
123 | E46P | -0.939 ± 0.12
124 | V38E | -0.554 ± 0.076
125 | V38Q | -0.704 ± 0.063
126 | V38G | -0.557 ± 0.057
127 | V38R | -0.654 ± 0.047
128 | V38K | -0.511 ± 0.071
129 | V38Y | -0.774 ± 0.11
130 | V38A | -0.196 ± 0.052
131 | V38N | -0.445 ± 0.12
132 | V38L | -0.081 ± 0.039
133 | V38W | -0.988 ± 0.092
134 | N33W | -0.054 ± 0.064
135 | N33Q | -0.047 ± 0.058
136 | N33D | -0.376 ± 0.076
137 | N33S | -0.016 ± 0.053
138 | N33I | -0.117 ± 0.073
139 | N33M | -0.128 ± 0.061
140 | N33P | -0.386 ± 0.064
141 | I4Q | -0.661 ± 0.073
142 | I4Y | -0.74 ± 0.092
143 | I4K | -0.516 ± 0.062
144 | I4E | -0.44 ± 0.062

Row | Variant | abundance fitness
145 | I4F | -0.534 ± 0.07
146 | I4A | -0.705 ± 0.064
147 | I4V | -0.059 ± 0.037
148 | F34T | -0.428 ± 0.048
149 | F34D | -0.578 ± 0.083
150 | F34W | 0.089 ± 0.053
151 | P17H | -0.093 ± 0.089
152 | P17V | -0.174 ± 0.051
153 | P17Y | -0.288 ± 0.15
154 | S39A | -0.067 ± 0.041
155 | S39W | -0.119 ± 0.053
156 | S39L | -0.267 ± 0.041
157 | S39I | -0.12 ± 0.08
158 | S39N | -0.138 ± 0.069
159 | S39F | -0.099 ± 0.057
160 | S39V | -0.038 ± 0.046
161 | S39K | -0.05 ± 0.051
162 | S39D | -0.542 ± 0.074
163 | S39G | -0.55 ± 0.046
164 | A11F | -1.13 ± 0.24
165 | A11N | -0.564 ± 0.082
166 | A11Q | -0.732 ± 0.098
167 | A11G | 0.035 ± 0.039

Source: the Human Domainome abundance scans (Beltran et al. 2025)
